Results: patent publication US7888090B2, “Mutants of O6-alkylguanine-DNA alkyltransferase” (Ecole Polytechnique Federale de Lausanne, priority 2004, dated 2011)

Key:
[1] = Expression yield of soluble GST-AGT fusion protein; parameters: species or system E. coli; conditions: comparator not stated
Procedure, shortened: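 GST-AGT fusions expressed in E. coli BL21, induced with 0.5 mM IPTG for 3.5 h at 24 °C, and purified from the soluble fraction on glutathione sepharose. Soluble and insoluble fractions compared by SDS-PAGE. Yield taken from A280 relative to wild-type hAGT purified the same way.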

[2] = Activity assay with biotinylated O^6-benzylguanine (BG-Bt), Western blotting; assay type: biochemical; conditions: statement in words
Procedure, shortened: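 Purified mutant GST-AGT (0.2 μM) reacted with 1 μM biotinylated O^6-benzylguanine in 50 mM HEPES pH 7.2, 1 mM DTT at room temperature. Time-point aliquots quenched with O^6-benzylguanine in SDS buffer. Biotinylated protein detected by Western blot with neutravidin-peroxidase, band intensity quantified.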

salmon sperm DNA = experiment: DNA binding as inhibition by DNA of the reaction with BG-Cy3; conditions: salmon sperm DNA 25 µg/ml
Protocol: The interaction with DNA is e.g. quantified by assessing the amount of copurified DNA from E. coli extracts under conditions of low salt and absence of DNase. This is compared between parallel purifications of fusion proteins (e.g. fusions to GST) of wild type (human) and mutant AGT by spectroscopic methods (ratio of absorbance at 260 and 280 nm). Alternatively the interaction of AGT with DNA is measured as the inhibition of AGT reactivity with BG-Cy3 (O^6-(4-aminomethyl-benzyl)-guanine coupled to Cy3) as substrate in the presence of DNA. This approach takes advantage of a marked increase of fluorescence of the Cy3 fluorophore upon reaction of BG-Cy3 with AGT. The reaction kinetics of AGT with a Cy3-labeled benzylguanine derivative is followed by fluorescence intensity measurements over several hours at various concentrations of salmon sperm DNA.
DNA binding: DNA binding is measured as inhibition by DNA of the reaction of AGT mutants with BG derivatives. The reaction rate of AGT mutants in a reaction mixture containing salmon sperm DNA (25 µg/ml) instead of oligonucleotide is measured with the BG-Cy3 assay. The reaction rate is determined by fitting the obtained data to a monoexponential increase to maximum.

CHO cells = experiment: Selective labelling in cells after CPTG pre-incubation; assay type: cell-based; conditions: 5 µM CPTG 10 min, then 5 µM fluorescent substance 4 20 min
Description: In a further experiment, the mutant AGTM as described in Example 6 is amplified with the primers SEQ ID NO:34 and SEQ ID NO:36 and cloned between the NheI and BgIII sites of the vector pEGFP-Nuc. The […]-galactosidase gene is amplified with the primers SEQ ID NO:37 and SEQ ID NO:38 and subcloned into this vector via BgIII/BamHI to result in a vector with an AGTM-[…]-Gal fusion gene. The hAGT gene is amplified by the principle described under Example 1 with the primers SEQ ID NO:39, SEQ ID NO:40, SEQ ID NO:34, and SEQ ID NO:35 and cloned via NheI/BgIII into pEGFP-Nuc to result in an AGT-NLS3 fusion gene coding for the mutation Gly160Trp. After transient expression of both AGT mutants in parallel, the cells are incubated with 5 µM CPTG for 10 min and subsequently with 5 µM of substance 4 of Juillerat et al., Chem Biol 10:313-317, 2003, for 20 min. The cells are washed and imaged as described under Example 1.

B1: AGTM: AGT mutant Cys62Ala, Gln115Ser, Gln116His, Lys125Ala, Ala127Thr, Arg128Ala, Gly131Lys, Gly132Thr, Met134Leu, Arg135Ser, Cys150Asn, Ser151Ile, Ser152Asn, Asn157Gly, Ser159Glu, truncated after … (protein, UniProt P16455 1-207, looked up, variant C62A Q115S Q116H K125A A127T R128A G131K G132T M134L R135S C150N S151I S152N N157G S159E del183-207)
Methylated-DNA--protein-cystei …: MDKDCEMKRTTLDSPLGKLELSGCEQGLHEIKLLGKGTSAADAVEVPAPAAVLGGPEPLMQATAWLNAYFHQPEAIEEFPVPALHHPVFQQESFTRQVLWKLLKVVKFGEVISYSHLAALAGNPAATAAVKTALSGNPVPILIPCHRVVNINGAVGGYEGGLAVKEWLLAHEGHRLGKPGLG
modifications: His tag
[1]
  expression yield in E. coli: increased expression yield
[2]
  activity towards O^6-benzylguanine substrates: retains the reactivity
[2]; Gln115Ser, Gln116His, Lys125Ala, Ala127Thr, Arg128Ala, Gly131Lys, Gly1
  activity towards O^6-benzylguanine substrates: increased reactivity
Salmon sperm DNA
  reduction of reaction rate to BG-Cy3 in presence of DNA: unchanged
CHO cells
  reaction with CPTG inside cells: does not react with CPTG
